In US20190159997A1, “COMPOSITIONS COMPRISING POLYESTERS OF BIOLOGICAL ORIGIN AND BIOCOMPATIBLE INORGANIC COMPOUNDS, AND USES THEREOF IN THE COSMETIC FIELD” (BIO-ON S.p.A., priority 2016, published 2019):

Test system: Streptococcus mutans ATCC 35668
Test: antibacterial effectiveness by bacterial count on Petri plates
Assay type: cell-based
Conditions: growth of Streptococcus mutans ATCC 35668
Method: Following the same procedure described in Example 4, two compositions of lactoferrin, hydroxyapatite and PHA were prepared, using solutions of lactoferrin with concentrations equal to 60 mg/ml and 80 mg/ml, and the same aqueous suspensions of HA and PHA used in Example (weight ratio between lactoferrin and mixture of HA+PHA equal to 1:1). The antibacterial effectiveness of these compositions was assessed, by means of bacterial count on Petri plates with respect to the growth of Streptococcus mutans ATCC 35668.

B1: lactoferrin (protein, UniProt P02788 20-710, looked up)
Lactotransferrin: GRRRSVQWCAVSQPEATKCFQWQRNMRKVRGPPVSCIKRDSPIQCIQAIAENRADAVTLDGGFIYEAGLAPYKLRPVAAEVYGTERQPRTHYYAVAVVKKGGSFQLNELQGLKSCHTGLRRTAGWNVPIGTLRPFLNWTGPPEPIEAAVARFFSASCVPGADKGQFPNLCRLCAGTGENKCAFSSQEPYFSYSGAFKCLRDGAGDVAFIRESTVFEDLSDEAERDEYELLCPDNTRKPVDKFKDCHLARVPSHAVVARSVNGKEDAIWNLLRQAQEKFGKDKSPKFQLFGSPSGQKDLLFKDSAIGFSRVPPRIDSGLYLGSGYFTAIQNLRKSEEEVAARRARVVWCAVGEQELRKCNQWSGLSEGSVTCSSASTTEDCIALVLKGEADAMSLDGGYVYTAGKCGLVPVLAENYKSQQSSDPDPNCVDRPVEGYLAVAVVRRSDTSLTWNSVKGKKSCHTAVDRTAGWNIPMGLLFNQTGSCKFDEYFSQSCAPGSDPRSNLCALCIGDEQGENKCVPNSNERYYGYTGAFRCLAENAGDVAFVKDVTVLQNTDGNNNEAWAKDLKLADFALLCLDGKRKPVTEARSCHLAMAPNHAVVSRMDKVERLKQVLLHQQAKFGRNGSDCPDKFCLFQSETKNLLFNDNTECLARLHGKTTYEKYLGPQYVAGITNLKKCSTSPLLEACEFLRK
notes: lactoferrin alone, aqueous solution with a concentration of 60 mg/ml and 80 mg/ml; protein having an antioxidizing action
Lactoferrin solution 60 mg/ml
  Reduction bacterial growth (%): 30%
Lactoferrin solution 80 mg/ml
  Reduction bacterial growth (%): 35%
